Measurements from paper PMC10687090, “The dimerized pentraxin-like domain of the adhesion G protein–coupled receptor 112 (ADGRG4) suggests function in sensing mechanical forces” (The Journal of Biological Chemistry, 2023).

Assays:
[1] = target: the molecule itself; assay: static light scattering; DynaPro NanoStar, 20 °C, quartz cuvette, several protein concentrations; molecular mass increased with protein concentration; no significant change of hydrodynamic radii and molecular mass in the presence of Ca2+; monomer to dimer
[2] = target: the molecule itself; assay: SAXS; concentration series 0.27-9.15 mg/mL, 3 to 5% glycerol added; KD by nonlinear regression of experimental Rg^2 versus concentration (Equation 4) with theoretical Rg of monomer and dimer for zero to two N-glycosylations; dimer to monomers
[3] = target: the molecule itself; assay: SAXS Guinier Rg, model with 1x N-glycosylation

B1: PTX-like domain of the human ADGRG4 (residues 1-240) (domain or fragment, UniProt Q8IZF6-1 28-240, looked up)
chain: LKGKKLDFFGRGDTYVSLIDTIPELSRFTACIDLVFMDDNSRYWMAFSYITNNALLGREDIDLGLAGDHQQLILYRLGKTFSIRHHLASFQWHTICLIWDGVKGKLELFLNKERILEVTDQPHNLTPHGTLFLGHFLKNESSEVKSMMRSFPGSLYYFQLWDHILENEEFMKCLDGNIVSWEEDVWLVNKIIPTVDRTLRCFVPENMTIQEKS
modifications: N-glycosylated (heterogeneous; putative N-glycosylation sites N166 and N233)
notes: signal peptide in the construct: human ADGRG4 (GPR112) residues 1-240, UniProt Q8IZF6-1; residues 1 to 25 are a signal peptide and are not present in the secreted protein; residues 26-162 and 176-231 are resolved in the crystal structure; Expected monomer mass printed as 30.5 kDa; also called G4-PTX; ADGRG4-PTX
- stoichiometry N [1]: 2
- Kd [2]: 7 to 32 µM
- Kd [3]: 20 µM
